{"source": "patent US20090239765A1", "about": "“GENES WHOSE EXPRESSION IS INCREASED IN RESPONSE TO STIMULATION BY CORTICOTROPIN-RELEASING HORMONE” (priority 2003, published 2009)", "key": {"CRH-R1 [1]": {"biological_target": "T1, CRH-R1 (Mus musculus, UniProt P35347)", "T1 construct": "host or cells: AtT-20 (murine pituitary corticotroph adenoma cells)", "T1 sequence (P35347 24-415)": "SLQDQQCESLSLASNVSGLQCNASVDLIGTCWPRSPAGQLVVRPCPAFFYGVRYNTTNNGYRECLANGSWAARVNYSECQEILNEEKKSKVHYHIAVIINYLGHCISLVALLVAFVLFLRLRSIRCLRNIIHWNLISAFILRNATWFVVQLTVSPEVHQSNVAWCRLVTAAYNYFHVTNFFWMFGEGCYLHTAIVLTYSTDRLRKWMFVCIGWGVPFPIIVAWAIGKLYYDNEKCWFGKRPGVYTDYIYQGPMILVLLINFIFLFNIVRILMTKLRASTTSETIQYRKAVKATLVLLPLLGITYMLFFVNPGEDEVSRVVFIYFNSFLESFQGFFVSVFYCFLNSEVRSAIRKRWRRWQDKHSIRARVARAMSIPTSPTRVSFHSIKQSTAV", "test": "c-fos mRNA levels by quantitative RT-PCR in AtT-20 cells", "type": "cell-based, murine", "experimental": "Cell culture and sample preparation—AtT-20 cells were purchased from ATCC and were maintained at 37° C. in 5% CO2 in humidified air in Dulbecco's modified Eagle's medium (Invitrogen Life Technologies) containing 10% fetal bovine serum, 50% horse serum and 4.5 g/L D-glucose. For experiments cells were seeded in 25 cm^2 flasks. The medium was replaced 48 h later and cells were treated with either 0.1% DMSO, 1 μM CRH (Sigma) in DMSO, 1 μM R121919 in DMSO or 1 μM CRH+1 μM R121919 in DMSO for 0, 0.5, 1, 2, 4, 8 and 24 h in fresh medium. The incubation was stopped by aspirating the incubation medium and adding 3 ml Trizol (Invitrogen Life Technologies) for lysis of the cells. Total RNA was extracted using Trizol according to the instructions of the manufacturer. […]\nQuantitative RT-PCR—Microarray data were confirmed using real time PCR analysis. […] Quantitative PCR was performed on a ABIPrism 7700 cycler (Applied Biosystems) using a Taqman PCR kit. […] A linear regression line calculated from the standard curves allowed the determination of transcript levels in RNA samples from the different time points.\nTranscriptional response to CRH was studied in the CRH-R1-expressing murine AtT-pituitary corticotroph-derived adenoma cell line. Whereas CRH-R1 was readily detectable both by real time quantitative RT-PCR (RTq) and western blot, CRH-R2 expression could not be discerned in AtT-20 cells. […]"}, "CRH-R1 [2]": {"biological_target": "T1, CRH-R1", "test": "Microarray transcriptional response to CRH in AtT-20 cells (Murine Genome U74Av2 arrays)", "type": "cell-based", "experimental": "(§1) Cell culture and sample preparation—AtT-20 cells were purchased from ATCC and were maintained at 37° C. in 5% CO2 in humidified air in Dulbecco's modified Eagle's medium (Invitrogen Life Technologies) containing 10% fetal bovine serum, 50% horse serum and 4.5 g/L D-glucose. For experiments cells were seeded in 25 cm^2 flasks. The medium was replaced 48 h later and cells were treated with either 0.1% DMSO, 1 μM CRH (Sigma) in DMSO, 1 μM R121919 in DMSO or 1 μM CRH+1 μM R121919 in DMSO for 0, 0.5, 1, 2, 4, 8 and 24 h in fresh medium. The incubation was stopped by aspirating the incubation medium and adding 3 ml Trizol (Invitrogen Life Technologies) for lysis of the cells. Total RNA was extracted using Trizol according to the instructions of the manufacturer. 100 μg total RNA was further purificied using Rneasy kit (Qiagen) with DNAseI treatment on column.\nMicroarray hybridization—cRNA was prepared as follows. Reverse transcription was performed on 10 μg of total RNA for 1 h at 42° C. using a T7-oligo(dT)24-primer and SuperscriptII RT (Invitrogen Life Technologies). Second strand cDNA synthesis was done for 2 h at 16° C. using Escherichia coli DNA Polymerase I, DNA ligase and RNAseH (Invitrogen Life Technologies). After phenol-chloroform extraction using phase-lock gel (Eppendorf) in vitro transcription was performed for 6 h at 37° C. using the Bioarray high-yield RNA transcript labeling kit with Biotin labeled ribonucleotides (Enzo Diagnostics). cRNA samples were purified on Qiagen Rneasy columns followed by fragmentation for 35 min at 95° C. cRNA yields were between 50 and 100 μg. Samples were processed on GeneChips (Affymetrix, Santa Clara, Calif.). In order to check the quality of each sample, 5 μg of labeled cRNA was run on Test2-arrays. Actual experiments were performed on Murine Genome U74Av2 arrays, containing probe sets interrogating approximately 12,000 full-length mouse genes and EST clusters from the UniGene database (Build 74). Hybridization was performed using 15 μg CRNA for 16 h at 45° C. under continuous rotation. Arrays were stained in Affymetrix Fluidics stations using Streptavidin/Phycoerythrin (SAPE) followed by staining with anti-streptavidin antibody and a second SAPE staining. Subsequently arrays were scanned with a HP-Laserscanner and data were analyzed with the Microarray Suite Software (Affymetrix). No scaling or normalization was performed at this stage. Quality of the experiment was assessed based on the percentages present calls across all samples which was on average 47.06±2.45%. The cytoplasmic β-actin and GAPDH 5′/3′ ratios were 1.10±0.08 and 0.93±0.05 respectively.\nBasically this alignment sets the average intensity of one array to the average measured across all arrays, compensating for array to array variations in hybridization, washing and staining, ultimately allowing a reasonable comparison between arrays. After alignment polished data were analyzed using weighted spectral mapping. Weighted spectral mapping is an unsupervised multivariate analysis method which includes double-centering of the data combined with a specialized visualization representing the two highest principle components. Even though double-centering removes the “size” component of the array data, this information is reintroduced in the visualization via the area of the symbols representing the size of the respective samples and genes. This method allows the reduction of a large microarray dataset and provides means to visually inspect and thereby identify clusters of genes and/or subjects in the data (7). A more detailed analysis was carried out using the OmniViz program. All records which were absent in all experiments were removed and all signals less than 20 were set to 20. Gene expression fold differences for CRH, R121919 and CRH+R121919 treatments were calculated at each timepoint. For those calculations signals at corresponding timepoints in DMSO treated samples were used to calculate ratios. […]"}, "CRF1 mRNA": {"system": "CRF1 mRNA", "test": "CRF1 mRNA in AtT-20 cells exposed to CRF", "type": "cell-based, murine", "conditions": "AtT-20 cells exposed to 1 μM CRF", "experimental": "as §1\nQuantitative RT-PCR—Microarray data were confirmed using real time PCR analysis. First strand cDNA synthesis was performed on 0.5 μg total RNA using random hexamer primers and SuperscriptII RT (Invitrogen Life Technologies). Quantitative PCR was performed on a ABIPrism 7700 cycler (Applied Biosystems) using a Taqman PCR kit. […] A linear regression line calculated from the standard curves allowed the determination of transcript levels in RNA samples from the different time points."}, "[3]": {"biological_target": "corticotropin-releasing hormone receptor 1 (CRH-R1), endogenous on murine AtT-20 cells (murine) (UniProt P35347)", "test": "cell-based or functional assay"}}, "data": [{"compound": "CCCN(CCC)c1cc(C)nc2c(-c3cnc(N(C)C)cc3C)c(C)nn12", "note": "[R121919]", "values": [{"measurement": "suppression of CRH-elicited c-fos transcription", "setting": "CRH-R1 [1]; 1 μM CRH in the presence of 1 μM R121919", "value": "almost completely suppressed"}, {"measurement": "suppression of CRH-induced transcriptional responses (microarray)", "setting": "CRH-R1 [2]; 1 μM CRH + 1 μM R121919", "value": "suppressed"}]}, {"compound": "CRH: Corticotropin releasing hormone, a 41-amino acid polypeptide (Sigma)", "values": [{"measurement": "c-fos transcription (c-fos mRNA levels by RTq)", "setting": "CRH-R1 [1]; 1 μM CRH, levels already going down after 0.5 to 1 h", "value": "transient surge"}, {"measurement": "number of regulated genes (greater than 2-fold change in transcript levels at any one time point, relative to DMSO, differing from antagonist treatment)", "setting": "CRH-R1 [2]; 1 μM CRH, 0.5 to 24 h", "value": 111, "unit": "genes"}, {"measurement": "number of intermediate responders (responding after 1 to 2 hours of treatment)", "setting": "CRH-R1 [2]; 1 μM CRH, 1 to 2 hours", "value": 32, "unit": "genes"}, {"measurement": "number of early responders (2-fold change after 30 minutes treatment)", "setting": "CRH-R1 [2]; 1 μM CRH, 30 minutes", "value": 26, "unit": "genes"}, {"measurement": "number of late responders (response after 2 hours or more)", "setting": "CRH-R1 [2]; 1 μM CRH, 2 hours or more", "value": 53, "unit": "genes"}, {"measurement": "direction of regulation of all responder genes", "setting": "CRH-R1 [2]; after exposure to CRH", "value": "up regulated"}, {"measurement": "alterations in CRF1 mRNA", "setting": "CRF1 mRNA", "value": "not detect any alterations"}]}, {"compound": "corticotropin-releasing hormone (CRH) (ligand)", "values": [{"measurement": "microarray gene expression in AtT-20 cells (greater than 2-fold change in transcript levels against DMSO)", "setting": "[3]", "value": 111, "unit": "genes"}]}]}
